Reference: patent US20230399641A1 (SHANGHAITECH UNIVERSITY, published 2023)

Target: T1, receptor binding domain (RBD) of wildtype SARS-CoV-2 spike (residues 319-541) (SARS-CoV-2, UniProt P0DTC2 319-541)
T1 construct: range 319-541
Test: SPR, purified ACE2 protein on purified RBD of SARS-CoV-2 spike

B1: purified human ACE2 mutant Q24del (receptor)
chain: STIEEAKTFLDKFNHEAEDLFYQSSLASWNYNTNITEENVQNMNNAGDKWSAFLKEQSTLAQMYPLQEIQNLTVKLQLQALQQNGSSVLSEDKSKRLNTILNTMSTIYSTGKVCNPDNPQECLLLEPGLNEIMANSLDYNERLWAWESWRSEVGKQLRPLYEEYVVLKNEMARANHYEDYGDYWRGDYEVNGVDGYDYSRGQLIEDVEHTFEEIKPLYEHLHAYVRAKLMNAYPSYISPIGCLPAHLLGDMWGRFWTNLYSLTVPFGQKPNIDVTDAMVDQAWDAQRIFKEAEKFFVSVGLPNMTQGFWENSMLTDPGNVQKAVCHPTAWDLGKGDFRILMCTKVTMDDFLTAHHEMGHIQYDMAYAAQPFLLRNGANEGFHEAVGEIMSLSAATPKHLKSIGLLSPDFQEDNETEINFLLKQALTIVGTLPFTYMLEKWRWMVFKGEIPKDQWMKKWWEMKREIVGVVEPVPHDETYCDPASLFHVSNDYSFIRYYTRTLYQFQFQEALCQAAKHEGPLHKCDISNSTEAGQKLFNMLRLGKSEPWTLALENVVGAKNMNVRPLLNYFEPLFTWLKDQNKNSFVGWSTDWSPYAD
Binder B1 has a Kd of 416 nM.
